Changes are numbered by the printed parent chain. Numbers in names are those of the source. One block for each binder: values may come before it.
Target: RELA (wild type) (UniProt Q04206 1-551)
Assay: cell-based or functional assay

Sequence of RELA (wild type) (Q04206 whole entry): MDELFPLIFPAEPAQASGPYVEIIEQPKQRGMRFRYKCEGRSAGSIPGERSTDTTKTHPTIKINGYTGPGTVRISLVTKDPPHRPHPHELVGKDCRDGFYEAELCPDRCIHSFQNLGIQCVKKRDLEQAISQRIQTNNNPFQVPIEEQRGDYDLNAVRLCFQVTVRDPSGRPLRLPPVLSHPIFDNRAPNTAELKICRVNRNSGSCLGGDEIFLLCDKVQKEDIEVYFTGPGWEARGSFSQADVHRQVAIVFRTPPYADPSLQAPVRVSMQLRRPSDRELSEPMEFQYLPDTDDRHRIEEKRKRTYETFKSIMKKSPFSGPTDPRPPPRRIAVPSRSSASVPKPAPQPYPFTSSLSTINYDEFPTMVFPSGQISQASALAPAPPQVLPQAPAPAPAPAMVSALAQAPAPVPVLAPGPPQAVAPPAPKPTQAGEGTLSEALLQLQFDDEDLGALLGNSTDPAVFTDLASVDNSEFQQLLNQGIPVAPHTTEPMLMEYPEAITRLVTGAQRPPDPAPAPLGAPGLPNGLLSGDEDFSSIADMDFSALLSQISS

B1: TWIST1 (wild type, Myc-His tagged) (other, not shown: small tags and cut ends)
chain: MMQDVSSSPVSPADDSLSNSEEEPDRQQPPSGKRGGRKRRSSRRSAGGGAGPGGAAGGGVGGGDEPGSPAQGKRGKKSAGCGGGGGAGGGGGSSSGGGSPQSYEELQTQRVMANVRERQRTQSLNEAFAALRKIIPTLPSDKLSKIQTLKLAARYIDFLYQVLQSDELDSKMASCSYVAHERLSYAFSVWRMEGAWSMSASH
IL-8 promoter driven firefly luciferase (FFluc), dual luciferase assay, Ovcar4 cells: ~2 fold

B3: TWIST1 R191A (other, not shown: small tags and cut ends)
chain: B1 chain with R191A
decrease in IL-8 promoter driven firefly luciferase (FFluc), dual luciferase assay, Ovcar4 cells: ~50%

Continued, values first:

decrease in IL-8 promoter driven firefly luciferase (FFluc), dual luciferase assay, Ovcar4 cells: ~50%
B2: TWIST1 E193A (other, not shown: small tags and cut ends)
chain: B1 chain with E193A

decrease in IL-8 promoter driven firefly luciferase (FFluc), dual luciferase assay, Ovcar4 cells: ~50%
B4: TWIST1 W190A (other, not shown: small tags and cut ends)
chain: B1 chain with W190A

Reference: US20200230201A1 (CITY OF HOPE, published 2020)
